Measurements reported in patent US20150044237A1 (CENTRE NATIONAL DE LA RECHERCHE SCIENTIFIQUE, published 2015).
“And” between values parts separate entries of the source, which are not always exact repeats. Equal entries are not always repeated. Where two headings read alike, the source gives them in different places.

B1: D1IgD2FasL (ligand, human)
chain: QKKGAPHDLKCVTNNLQVWNCSWKAPSGTGRGTDYEVCIENRSRSCYQLEKTSIKIPALSHGDYEITINSLHDFGSSTSKFTLNEQNVSLIPDTPEILNLSADFSTSTLYLKWNDRGSVFPHRSNVIWEIKVLRKESMELVKLVTHNTTLNGKDTLHHWSWASDMPLECAIHFVEIRCYIDNLHFSGLEEWSDWSPVKNISWIPDSQTKVFPQDKVILVGSDITFCCVSQEKVLSALIGHTNCPLIHLDGENVAIKIRNISVSASSGTNVVFTTEDNIFGTVIFAGYPPDTPQQLNCETHDLKEIICSWNPGRVTALVGPRATSYTLVESFSGKYVRLKRAEAPTNESYQLLFQMLPNQEIYNFTLNAHNPLGRSQSTILVNITEKVYPHTPTSFKVKDINSTAVKLSWHLPGNFAKINFLCEIEIKKSNSVQEQRNVTIKGVENSSYLVALDKLNPYTLYTFRIRCSTETFWKWSKWSNKKQHLTTEASQKELAELRESTSQMHTASSLEKQIGHPSPPPEKKELRKVAHLTGKSNSRSMPLEWEDTYGIVLLSGVKYKKGGLVINETGLYFVYSKVYFRGQSCNNLPLSHKVYMRNSKYPQDLVMMEGKMMSYCTTGQMWARSSYLGAVFNLTSADHLYVNVSELSLVNFEESQTFFGLYKL
B2: polymeric Flag-tagged soluble FasL (pfFasL) (ligand, not shown: small tags and cut ends)
chain: IPDSQTKVFPQDKVILVGSDITFCCVSQEKVLSALIGHTNCPLIHLDGENVAIKIRNISVSASSGTNVVFTTEDNIFGTVISRALQKELAELRESTSQMHTASSLEKQIGHPSPPPEKKELRKVAHLTGKSNSRSMPLEWEDTYGIVLLSGVKYKKGGLVINETGLYFVYSKVYFRGQSCNNLPLSHKVYMRNSKYPQDLVMMEGKMMSYCTTGQMWARSSYLGAVFNLTSADHLYVNVSELSLVNFEESQTFFGLYKL
B3: IgFasL (ligand)
chain: B2 chain
notes: also called pFasL; polymeric FasL
B4: soluble FasL (sFasL) (ligand)
chain: QKELAELRESTSQMHTASSLEKQIGHPSPPPEKKELRKVAHLTGKSNSRSMPLEWEDTYGIVLLSGVKYKKGGLVINETGLYFVYSKVYFRGQSCNNLPLSHKVYMRNSKYPQDLVMMEGKMMSYCTTGQMWARSSYLGAVFNLTSADHLYVNVSELSLVNFEESQTFFGLYKL
B5: D2FasL (ligand, human)
chain: TPQQLNCETHDLKEIICSWNPGRVTALVGPRATSYTLVESFSGKYVRLKRAEAPTNESYQLLFQMLPNQEIYNFTLNAHNPLGRSQSTILVNITEKVYPHTPTSFKVKDINSTAVKLSWHLPGNFAKINFLCEIEIKKSNSVQEQRNVTIKGVENSSYLVALDKLNPYTLYTFRIRCSTETFWKWSKWSNKKQHLTTEASQKELAELRESTSQMHTASSLEKQIGHPSPPPEKKELRKVAHLTGKSNSRSMPLEWEDTYGIVLLSGVKYKKGGLVINETGLYFVYSKVYFRGQSCNNLPLSHKVYMRNSKYPQDLVMMEGKMMSYCTTGQMWARSSYLGAVFNLTSADHLYVNVSELSLVNFEESQTFFGLYKL
notes: domain: D2
B6: Recombinant Fas-Fc (R&Dsystems) (Fc fusion, UniProt P25445 26-173, looked up)
chain: QVTDINSKGLELRKTVTTVETQNLEGLHHDGQFCHKPCPPGERKARDCTVNGDEPDCVPCQEGKEYTDKAHFSSKCRRCRLCDEGHGLEVEINCTRTQNTKCRCKPNFFCNSTVCEHCDPCTKCEHGIIKECTLTSNTKCKEEGSRSN
notes: not shown: Fc part

How the values were obtained:
[1] = biological target: T1, Fas (CD95/APO-1) on Jurkat cells (human, UniProt P25445 26-335); experiment: cell-based or functional assay
T1 sequence (looked up): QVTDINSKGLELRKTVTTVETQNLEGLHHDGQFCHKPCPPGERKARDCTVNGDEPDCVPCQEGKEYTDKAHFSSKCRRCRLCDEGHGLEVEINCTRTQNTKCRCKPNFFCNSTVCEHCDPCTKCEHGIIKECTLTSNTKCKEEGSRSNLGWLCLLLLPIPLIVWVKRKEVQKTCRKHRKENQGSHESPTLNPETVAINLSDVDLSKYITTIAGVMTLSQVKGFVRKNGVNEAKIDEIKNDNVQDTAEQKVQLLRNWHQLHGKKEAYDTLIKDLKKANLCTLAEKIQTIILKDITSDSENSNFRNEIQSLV

HLA-pfFasL (human) = experiment: cell-based or functional assay
[2] = biological target: T1, Fas (CD95/APO-1) on Jurkat cells; experiment: cell-based or functional assay; remark: listed apart in the source
[3] = biological target: T1, Fas (CD95/APO-1) on Jurkat cells; experiment: cell-based or functional assay; remark: listed apart in the source
[4] = biological target: B6; experiment: SPR (BIAcore 3000), Fas-Fc immobilised on CM5 chip
Procedure: (§1) The experiments were carried out on a BIAcore 3000 optical biosensor (GE healthcare, Chalfont, UK). The FasL chimeras were produced as COS supernatants in Opti-MEM medium, concentrated 100 times, dialyzed against PBS and sterilized by filtration. Recombinant Fas-Fc (R&Dsystems, Minneapolis, Minn.) was covalently coupled to a carboxymethyl dextran flow cell (CM5, BIAcore) following the manufacturer's recommendations. The level of immobilization was 2,000 resonance units (RU). Binding of the FasL chimeras was assayed at concentrations ranging from 0.2 to 100 nM for IgFasL, 0.2 to 44 nM for cFasL, 0.2 to 37.5 nM for D2FasL, and 0.25 to 8 nM for D1IgD2FasL, in Hepes-buffered saline, at a 30 μl/min flow rate. Association was monitored for 5 min before initiating the dissociation phase for another 11 min with Hepes-buffered saline. The flow cell was regenerated with 4M MgCl2. The sensorgrams were analyzed using the BIAeval 4.1 software (BIAcore). The background of the Opti-MEM medium was at 30 RU.
(§2) The affinity of the FasL chimeras for Fas was measured using the surface plasmon resonance Biacore® method, against recombinant Fas-Fc immobilized on a chip. IgFasL, D2FasL, D1IgD2FasL and sFasL as a control, were produced as supernatants in COS cells cultured in serum-free medium, concentrated 100 times, and dialysed against PBS.

[5] = biological target: B6; experiment: SPR (BIAcore 3000), Fas-Fc immobilised on CM5 chip, FasL construct as analyte
Procedure: as §1, §2

[6] = biological target: B6; experiment: SPR (BIAcore), Fas-Fc immobilised on chip, FasL construct as analyte; reference cFasL
Procedure: as §1, §2

D2FasL = biological target: B5; experiment: SPR (BIAcore 3000), Fas-Fc immobilised on CM5 chip, FasL construct as analyte
Procedure: as §1, §2

cleaved FasL (cFasL) = biological target: T2, cleaved FasL (cFasL) (human, UniProt P48023 127-281); experiment: as above
T2 construct: range 127-281; Supernatant of COS cells transfected with wild-type FasL; also called spontaneously cleaved membrane FasL; metalloprotease-cleaved FasL
T2 sequence (looked up): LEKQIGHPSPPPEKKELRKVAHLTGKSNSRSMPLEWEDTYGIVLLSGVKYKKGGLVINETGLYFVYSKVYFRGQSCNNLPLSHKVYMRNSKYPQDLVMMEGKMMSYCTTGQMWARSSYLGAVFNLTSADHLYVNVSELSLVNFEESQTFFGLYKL
Procedure: as §1, §2

D1IgD2FasL = biological target: B1; experiment: as above
Procedure: as §1, §2

Molecule: Anti-human Fas agonistic mAb 7C11 (IgM) (antibody)
concentration required to kill 50% of the Jurkat cells [1]: 2 ng/mL

Molecule: anti-β2 microglobulin mAb (clone B2M-01) (antibody)
enhancement of the cytotoxicity of HLA-pfFasL on CD32+ L-cells by pre-formed immune complexes (HLA-pfFasL (human)): 2.5 fold

Molecule: Flag-tagged sFasL (sfFasL) (from UniProt P48023 108-281) (ligand)
cytotoxicity EC50 on the Jurkat cell line (MTT assay) [1]: > 3 µg/mL | cytotoxicity on Jurkat cells, activity against pfFasL (fold less active than pfFasL) [1]: > 5000

Molecule: anti-Flag mAb (clone M2) (antibody)
enhancement of the cytotoxicity of HLA-pfFasL on CD32+ L-cells by pre-formed immune complexes (HLA-pfFasL (human)): 2.5 fold

Molecule: B1
cell death of Jurkat cells (MTT assay), potency against IgFasL [2]: 125 fold less potent than IgFasL

Molecule: B2
cytotoxicity EC50 on the Jurkat cell line (MTT assay) [3]: 0.6 ng/mL and 15.5 pM

Molecule: B3
fold difference of Kd against cFasL [4]: 6 fold | Kd [5]: 11.6 nM | koff [5]: 0.00041 s⁻¹ | kon [5]: 25000 M⁻¹ s⁻¹ | fold affinity against cFasL (Kd ratio) [6]: 6 fold

Molecule: B4
cytotoxicity on Jurkat cells, activity against pfFasL [2]: ≥ 5000 fold less active than pfFasL | cytotoxicity EC50 on the Jurkat cell line (MTT assay) [3]: > 3 µg/mL

Molecule: B5
fold difference of Kd against cFasL [4]: 2 fold | cell death of Jurkat cells (MTT assay), potency against IgFasL [2]: 12.5 fold less potent than IgFasL | fold affinity against cFasL (Kd ratio) [6]: 2 fold

Molecule: B6
Kd (D2FasL): 38.5 nM | koff (D2FasL): 0.006 s⁻¹ | kon (D2FasL): 160000 M⁻¹ s⁻¹ | Kd (cleaved FasL (cFasL)): 69.4 nM | koff (cleaved FasL (cFasL)): 0.0059 s⁻¹ | kon (cleaved FasL (cFasL)): 84000 M⁻¹ s⁻¹ | Kd (D1IgD2FasL): 25.6 nM | koff (D1IgD2FasL): 0.0033 s⁻¹ | kon (D1IgD2FasL): 130000 M⁻¹ s⁻¹
